The source of these data is patent publication US20050255555A1.

Some results are limits rather than exact numbers.

Experiment [1] concerns the target wt-EGFR, FLAG-tagged full-length human EGFR on BaF/3 cells (human) (UniProt P00533). As to the kind of experiment: FACS on wtEGFR-BaF/3 cells, 10 µg/ml antibody.
Experiment [2] shares this target. The experiment in a line: FACS on wtEGFR-BaF/3 cells, median fluorescence against mock preincubation.
Experiment [3] has as its target EGFR 273-621 C287R, yeast surface displayed (yeast; human). As to the kind of experiment: titration on yeast surface, flow cytometry, global fit of three data sets. Background: In flow cytometry, cells or beads pass a laser one at a time.
Experiment [4] deals with wild-type EGFR 273-621, yeast surface displayed (Example 3) (yeast; human). Described as above.
Experiment [5] concerns the target EGFR 273-621 E293K, yeast surface displayed (yeast; human). The experiment in a line: from the titrations on yeast surface.
In experiment [6] the target is EGFR 273-621 C287R, yeast surface displayed (yeast; human). As to the kind of experiment: from the titrations on yeast surface.
Experiment [7] concerns the target EGFR 273-621 E293K, yeast surface displayed (yeast; human). As to the kind of experiment: titration on yeast surface, flow cytometry.
Experiment [8] has as its target wild-type EGFR 273-621, yeast surface displayed (Example 3) (yeast; human). As to the kind of experiment: titration on yeast displaying EGFR 273-621, flow cytometry, three data sets.
Experiment [9] concerns the target EGFR 273-621 C287R, yeast surface displayed (yeast; human). The experiment in a line: titration on yeast displaying EGFR 273-621 C287R, flow cytometry, three data sets.
For another experiment, the target named is monoclonal antibody 806. As to the kind of experiment: competition ELISA: peptide in solution against mAb […] binding to plate-coated 1-501 EGFR fragment.

Chain of monoclonal antibody 806 (VH): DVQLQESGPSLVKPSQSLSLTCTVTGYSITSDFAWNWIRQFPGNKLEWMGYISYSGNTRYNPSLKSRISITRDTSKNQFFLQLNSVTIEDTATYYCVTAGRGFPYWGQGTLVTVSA
Chain of monoclonal antibody 806 (VL): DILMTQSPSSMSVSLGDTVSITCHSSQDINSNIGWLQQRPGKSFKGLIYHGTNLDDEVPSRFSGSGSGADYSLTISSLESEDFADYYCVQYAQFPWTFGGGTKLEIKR

Consider monoclonal antibody 528, for which, in [1], the median fluorescence after mock preincubation was 112. Further, in [2], the change (%) in antibody reactivity after preincubation with EGF was -23% and the change (%) in antibody reactivity after preincubation with mAb[…] was -3%.

Usually Kd stands for a measure of binding affinity in units of concentration. One may read the EC50 (read off the curve) as the concentration that produces a half-maximal response. A lower EC50 (read off the curve) goes with a more potent agent. Turning to monoclonal antibody 806, the Kd in experiment [3] is 127 nM; in experiment [4], 2.13 nM; in experiment [7], over 30000 nM. Besides, the ΔΔG compared to wild-type in experiment [5] amounted to 5.7 kcal/mol; in experiment [6], 2.4 kcal/mol. For the same molecule, the EC50 (read off the curve) stood at 2 nM in experiment [8] and 100 nM in experiment [9]. In addition, the median fluorescence after mock preincubation in experiment [1] was 7. In [2], the change (%) in antibody reactivity after preincubation with EGF was -48%. The change (%) in antibody reactivity after preincubation with mAb[…] in experiment [2] amounted to 163%.

The molecule CGADSYEMEEDGVRKC [287-302 EGFR peptide (287…302)] displayed an IC50 (read off the curve) in the experiment with monoclonal antibody 806 of 3 µg/mL.
